Assay results as given in PMC2695463, “Conformational flexibility and molecular interactions of an archaeal homologue of the Shwachman-Bodian-Diamond syndrome protein”.

Target: T1, mthSBDS (Methanothermobacter thermautotrophicus, UniProt O26781 1-232, R175M)
T1 sequence: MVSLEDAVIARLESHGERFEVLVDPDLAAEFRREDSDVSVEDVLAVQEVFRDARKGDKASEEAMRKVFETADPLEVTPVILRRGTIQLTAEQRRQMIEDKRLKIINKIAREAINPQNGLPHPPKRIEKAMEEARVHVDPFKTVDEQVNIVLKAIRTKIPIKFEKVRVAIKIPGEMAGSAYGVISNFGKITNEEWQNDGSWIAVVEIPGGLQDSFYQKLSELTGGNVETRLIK
Test: EMSA; SPR: 10 mM HEPES pH 7.5, 150 mM NaCl, 5 uM EDTA, 0.05% P20, +/- 5 mM MgCl2, temperature not stated; SELEX: 25 mM Tris pH 7.5, 0.5 M NaCl; EMSA: protein 1e-12 to 1e-4 M, buffer not stated
Conditions: protein: recombinant; tags: N-terminal 19-aa extension with His6 (pET28a)

## AAAAAAAAAAAAAAAAAAAAAAAAAAAAAA (ssRNA) [30-base poly(A) RNA]
  binding result: no binding
